Square brackets hold non-standard residues; d marks the D form. Primed or numbered codes have the meaning given here. FITC′ = fluorescein isothiocyanate; pS = N[C@@H](COP(=O)(O)O)C(=O)O; βAla = NCCC(=O)O
B1: unlabeled (N-terminally acetylated) IκBαpS63 peptide (peptide, UniProt P25963 57-69, looked up)
peptide: Ac-QEVPRG[pS]EPWKQQ-NH2
B2: FITC-labeled IκBαpS63 peptide (phosphorylated 14-3-3 binding motif of IκBα) (peptide, UniProt P25963 57-69, looked up)
peptide: {FITC′-βAla}-QEVPRG[pS]EPWKQQ-NH2
B3: 14-3-3σ with truncated C-terminus ΔC232-248 (domain or fragment, human, UniProt P31947 1-231, looked up)
chain: MERASLIQKAKLAEQAERYEDMAAFMKGAVEKGEELSCEERNLLSVAYKNVVGGQRAAWRVLSSIEQKSNEEGSEEKGPEVREYREKVETELQGVCDTVLGLLDSHLIKEAGDAESRVFYLKMKGDYYRYLAEVATGDDKKRIIDSARSAYQEAMDISKKEMPPTNPIRLGLALNFSVFHYEIANSPEEAISLAKTTFDEAMADLHTLSEDSYKDSTLIMQLLRDNLTLWT

What was measured:
[1] = biological target: FITC-labeled IκBαpS63 peptide (phosphorylated 14-3-3 binding motif of IκBα) (human) (UniProt P25963); assay: fluorescence polarisation
[2] = biological target: B3; assay: crystal structure
[3] = biological target: T1, W59F and W228F double mutation of 14-3-3ζ (human, UniProt P63104 1-245, W59F | W228F); assay: fluorescence polarisation
T1 sequence (looked up): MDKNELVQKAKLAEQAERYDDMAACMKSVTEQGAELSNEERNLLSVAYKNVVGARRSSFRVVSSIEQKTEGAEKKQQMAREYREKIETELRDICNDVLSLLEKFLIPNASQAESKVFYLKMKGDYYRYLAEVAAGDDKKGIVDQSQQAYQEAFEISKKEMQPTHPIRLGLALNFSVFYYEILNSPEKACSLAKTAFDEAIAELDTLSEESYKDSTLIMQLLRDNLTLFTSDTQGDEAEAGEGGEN

crystal structure = biological target: the molecule itself; assay: crystal structure

## 14-3-3ζ (from UniProt P63104 1-245) (natural protein)
[1]
  Kd: 380 µM

## B1
[2]
  binding result: binds

## B2
[3]
  Kd: ~415 µM

## B3
Crystal structure
  binding result: binds

Source: paper PMC7081424 (ACS Omega, 2020)
